The source of these data is US20200164020A1.

The target of this assay is IFNβ in spent medium of HEp-2 cells transfected with siPUM1 (UniProt P01574). As to the kind of experiment: cell-based or functional assay.
Chain of UniProt P01574 (P01574 22-187 limits assumed): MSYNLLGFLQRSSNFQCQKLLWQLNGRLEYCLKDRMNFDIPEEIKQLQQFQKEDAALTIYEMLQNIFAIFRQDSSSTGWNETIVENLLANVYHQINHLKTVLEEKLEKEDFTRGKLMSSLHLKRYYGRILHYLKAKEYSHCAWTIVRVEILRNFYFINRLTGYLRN

Substance “anti-IFNβ antibody (R&D Systems, MAB814-100)” returned an accumulation of HSV-1 viral proteins (immunoblot) in HEp-2 cells exposed to siPUM1 spent medium pre-incubated with antibody, IFN neutralization assay of 2 to 4 fold.
